B1: 10F7 (antibody, V domains shown)
VH: EVQLVESGGGLVQPGRSLRLSCTASGFTFGDYAMSWFRQAPGKGLEWVGFIRSKAYGGTTEYAASVKGRFTISRDDSKSIAYLQMNSLKTEDTAVYYCTRASSLLWLLNPQPNFDYWGQGTLVTVSS
VL: SYVLTQPPSVSVAPGQTARITCGGNNIGSNNVHWYQQKPGQAPVLVVYDDSDRPSGIPERFSGSNSGNTATLTISRVEAGDEADYYCQVWDSSSDHPVFGGGTKLTVL
notes: human IgG; also called 10F7-biotin
B2: 11B12 (antibody, V domains shown)
VH: QMQLVQSGPQVKKPGTSVKVSCKASGFTFTSSAMQWVRQARGQRPEWIGWIVLGSGNTNYAQKFQERVTLTRDMSTATAYMELSSLRSEDTAVYYCAADRGRGGYNVYTYWGQGTLVAVSS
VL: EIVMTQSPGTLSLSPGERATLSCRASQTISNTYVAWYQQKPGQAPRLLIYGASSRATGIPDRFSGSGSGTDFTLTIRRLEPEDFAVYYCQQNGQSPWTFGQGTNVEIK
B3: 13H11 (antibody, V domains shown)
VH: QVQLVQSGAEVKKPGASVKVSCKASGYTFTNYYIHWVRQAPGQGLEWMGIIHPSSGGTSYAQKFQGRVTMTRDTSTSTVSMDLSSLRSEDTAVYYCGRAFRILGLSDVFVNDWGQGTVVTVSS
VL: DIQMTQSPSSLSASVGDRVTITCRASQGINNYLAWYQQKPGKVPKLLIYAASTLQSGVPSRFSGSGSGTAFTLTILSLQPEDVATYYCQKYNSAPFTFGPGTKVDIK
B4: 8L13 (antibody, V domains shown)
VH: QVQLLESGGGVVQPGRSLRLSCAASGFTFSNYGMHWVRQAPGKGLEWVAVIWNDGSKKYYAESVKGRFTISRDNSKNTVYLQMNSLRAEDTAVYYCARDEGVQMVFAMPDYGMDVWGQGTTVTVSS
VL: SYELTQPPSVSVSPGQTASITCSGDKLGDKFACWYQQRPGQSPILVIYQDSKRPSGIPERFSGSNSGNTATLTIRGTQAMDEADYYCQAWDSSTAHYVFGTGTKVTVL
notes: human IgG
B5: 10P3 (antibody, V domains shown)
VH: EVQLVESGGGLVRPGGSLRLSCAASGFTFHNYRMNWVRQAPGKGLEWVANIKQDGSEKSYVDSVRGRFTTSRDNSKNSLYLQINSLRAEDTAVYYCARGEGYTYGVVYSYSAMDVWGQGTTVIVSS
VL: SYELTQPPSVSVSPGQTARITCSGNVLPNQYASWYQQKPGQAPVLVIYKDTERPSGIPGRFSGSSSGTTVTLTISGVQAEDEADYYCQSADSSGADYVFGTGTKVTVL
notes: human IgG
B6: 4N10 (antibody, V domains shown)
VH: QVQLVQSGAEVKKPGSSVRVSCKASGGTFSSYVIIWVRQAPGQGLEWMGGVIPIFDTVNYAQKFQGRVTITADESTSTAYMELSSLKSEDTAVYYCARGILAYCGGDCYNTPYGMDVWGQGTTVTVSS
VL: DIQMTQSPSILSASVGDRVTITCRASQSISSWLAWYQQKPGKAPKLLIYKASSLEIGVPSRISGSGSGTEFTLTISSLQPDDFATYYCQQYNSSWTFGQGTKVEIK
notes: human IgG; also called 4N10-biotin
B7: 7B13 (antibody, V domains shown)
VH: QVQLVESGGGVVQPGGSLRLSCAASGFSFSNYGMHWVRQAPGKGLEWVALIPSDGNYQYYTDSVKGRFTVSRDNSRNTLYLQMKSLRAEDTARYHCAHLGGGLFDFWGQGTLVTVSS
VL: QSALNQPRSVSGSPGQSVSISCTGSSSDVGGYEFVSWYQHHPGKAPKLIIYDVDKRPSGVPDRFSGSRSGDTASLTISGLQAEDEADYYCYSSADTWVFGGGTKLTVL
notes: human IgG
B8: 3G16 (antibody, V domains shown)
VH: QSALTQPASVSGSPGESITISCTGTISDVGAYNSVSWYQQHSGTAPELIIYDVTNRPAGVSSRFSGSKSGNTASLTISWLQSEDEAEYYCSSYTTSDTYVFGSGTQVTVL
V domain: RAQLVQSAAEMKNPGASVKVSCEASGYTFTGYYVHWMRQAPGQGLEWMGWINPMTGATKSPQKFQGRVTMTRDTSTTATHIELTRLRSDDSAVFFCARGGPTSTRITGKRHFDLWGRGTLITVAS
notes: human IgG; also called 3G16-biotin

Assays:
[1] = target: T1, hCMV UL130 + UL131A (HEK293T co-transfectant) (hCMV, UniProt P16772 1-214); assay: cell-based or functional assay
[2] = target: T1, hCMV UL130 + UL131A (HEK293T …); assay: cell-based or functional assay; remark: listed apart in the source
[3] = target: T2, hCMV gH + gL + UL128 + UL130 + UL131A (5-member complex; HEK293T co-transfectant) (hCMV, UniProt P12824 24-743; P16832 31-278; P16837 1-171; P16772 1-214); assay: cell competition; competitor 2F4-biotin
T2 construct: whole, on cells; in the functional rows it stands for the complex on virions or transduced cells of the strain or isolate named in the readout; also called gH/gL/UL128-131A complex; pentameric complex

[4] = target: T2, hCMV gH + gL + UL128 + UL130 + UL131A …; assay: cell competition; competitor 5A2-biotin
[5] = target: T2, hCMV gH + gL + UL128 + UL130 + UL131A …; assay: cell competition; competitor 6G4-biotin
[6] = target: T2, hCMV gH + gL + UL128 + UL130 + UL131A …; assay: cell competition; competitor 10F7-biotin
[7] = target: T2, hCMV gH + gL + UL128 + UL130 + UL131A …; assay: cell competition; competitor 15D8-biotin
[8] = target: T2, hCMV gH + gL + UL128 + UL130 + UL131A …; assay: cell competition; competitor 1F11-biotin
[9] = target: T2, hCMV gH + gL + UL128 + UL130 + UL131A …; assay: cell competition; competitor 4I22-biotin
[10] = target: T2, hCMV gH + gL + UL128 + UL130 + UL131A …; assay: cell competition; competitor 4N10-biotin
[11] = target: T2, hCMV gH + gL + UL128 + UL130 + UL131A …; assay: cell competition; competitor 2C12-biotin
[12] = target: T2, hCMV gH + gL + UL128 + UL130 + UL131A …; assay: cell competition; competitor 8I21-biotin
[13] = target: T3, hCMV gH (HEK293T transfectant) (hCMV, UniProt P12824 24-743); assay: cell-based or functional assay
[14] = target: T3, hCMV gH (HEK293T transfectant); assay: cell-based or functional assay; remark: listed apart in the source
[15] = target: T4, hCMV UL128 + UL130 + UL131A (HEK293T co-transfectant) (hCMV, UniProt P16837 1-171; P16772 1-214); assay: cell-based or functional assay
[16] = target: T4, hCMV UL128 + UL130 + UL131A (HEK293T …); assay: cell-based or functional assay; remark: listed apart in the source
[17] = target: T2, hCMV gH + gL + UL128 + UL130 + UL131A …; assay: cell competition; competitor 9I6-biotin
[18] = target: T2, hCMV gH + gL + UL128 + UL130 + UL131A …; assay: cell competition; competitor 8C15-biotin
[19] = target: T2, hCMV gH + gL + UL128 + UL130 + UL131A …; assay: cell competition; competitor 8J16-biotin

T1 sequence (P16772 whole entry): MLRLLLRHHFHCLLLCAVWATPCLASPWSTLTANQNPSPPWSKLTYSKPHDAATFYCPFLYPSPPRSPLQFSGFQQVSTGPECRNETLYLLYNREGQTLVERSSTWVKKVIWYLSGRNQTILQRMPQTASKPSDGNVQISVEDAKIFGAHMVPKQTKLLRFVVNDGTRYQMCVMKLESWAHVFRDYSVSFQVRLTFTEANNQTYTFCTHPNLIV
T4 sequence (P16837 whole entry, chain 1 of 2): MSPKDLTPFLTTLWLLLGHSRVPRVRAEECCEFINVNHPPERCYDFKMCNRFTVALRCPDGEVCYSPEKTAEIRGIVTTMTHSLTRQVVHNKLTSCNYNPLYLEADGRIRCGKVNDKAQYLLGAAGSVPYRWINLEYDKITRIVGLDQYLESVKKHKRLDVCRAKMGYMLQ
T4 sequence (P16772 whole entry, chain 2 of 2): as the sequence (P16772 whole entry) above

Binder | 50% neutralization VR1814, ARPE [1] [µg/mL] | 50% neutralization VR1814, MRC-9 [1] [µg/mL] | 90% neutralization VR1814, ARPE [2] [µg/mL] | 90% neutralization VR1814, MRC-9 [2] [µg/mL] | Inhibition of binding (%) [3] [%] | Inhibition of binding (%) [5] [%] | Inhibition of binding (%) [6] [%] | Inhibition of binding (%) [7] [%] | Inhibition of binding (%) [8] [%] | Inhibition of binding (%) [9] [%] | Inhibition of binding (%) [11] [%] | Inhibition of binding (%) [12] [%] | 50% neutralization VR1814, ARPE [13] [µg/mL] | 50% neutralization VR1814, MRC-9 [13] [µg/mL] | 90% neutralization VR1814, ARPE [14] [µg/mL] | 90% neutralization VR1814, MRC-9 [14] [µg/mL] | further results
B1 | < 0.01 | ≤ 2 | 0.002 | > 10 | 100 | 0 | 100 | 0 | 100 | 100 | 0 | 0 | – | – | – | – | Inhibition of binding (%) [4]: 0%; Inhibition of binding (%) [10]: 0%
B2 | – | – | – | – | – | – | – | – | – | – | – | – | ≤ 2 | ≤ 2 | 1.2 | 3.5 | –
B3 | – | – | – | – | – | – | – | – | – | – | – | – | < 0.01 | ≤ 2 | 0.4 | 1.12 | –
B4 | < 0.01 | > 2 | 0.001 | > 10 | – | – | 100 | – | 100 | – | – | – | – | – | – | – | –
B5 | < 0.001 | > 2 | 0.0025 | > 10 | 0 | 0 | – | 0 | 0 | 0 | 0 | 0 | – | – | – | – | –
B6 | < 0.001 | ≤ 2 | 0.02 | > 10 | 0 | 0 | 0 | 0 | 0 | 0 | 0 | 90 | – | – | – | – | Inhibition of binding (%) [4]: 100%; Inhibition of binding (%) [10]: 100%
B7 | – | – | – | – | – | 100 | – | – | – | – | 100 | 0 | – | – | – | – | 50% neutralization VR1814, ARPE [15]: < 0.001 µg/mL; 50% neutralization VR1814, MRC-9 [15]: > 2 µg/mL; 90% neutralization VR1814, ARPE [16]: 0.003 µg/mL; 90% neutralization VR1814, MRC-9 [16]: > 10 µg/mL; Inhibition of binding (%) [17]: 100%; Inhibition of binding (%) [18]: 100%; Inhibition of binding (%) [19]: 100%
B8 | – | – | – | – | – | 0 | – | – | – | – | 0 | 0 | ≤ 2 | ≤ 2 | 0.3 | 1 | –

From US20170296650A1 (Novartis, published 2017)
